Experimental findings from the supplement of paper PMC5998384 are described below.

In series [1] the test system is HeLa Kyoto. In words: solubility in G1/S (NP-40 vs SDS abundance) (log2 ratio); higher = more soluble. The following applies: cell cycle stage: G1/S.
The subject of series [2] is HeLa Kyoto. In words: melting temperature (median over replicates), in situ; higher = more thermally stable.
Series [3] deals with HeLa Kyoto. Put plainly: solubility change mitosis vs G1/S (difference of NP-40 vs SDS log2 ratios) (log2 ratio difference); higher = more soluble in mitosis.
Series [4] has as its system HeLa Kyoto. In words: thermal stability score vs G1/S (z-score of summed log2 fold changes over temperatures); higher = more thermally stable than in G1/S.
Setting [5] is: cell cycle stage: early G1 (4.5 h after nocodazole release).
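For melting temperature (median over replicates), in situ in this document: HeLa Kyoto cells synchronized by double thymidine or nocodazole block, proteins quantified by TMT10plex mass spectrometry, three independent biological replicates.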
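For solubility change mitosis vs G1/S (difference of NP-40 vs SDS log2 ratios) in this document: synchronized HeLa Kyoto cells (double thymidine block for G1/S, nocodazole release for mitosis), protein amounts in NP-40 versus SDS lysates quantified by mass spectrometry, three biological replicates.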
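For solubility in G1/S (NP-40 vs SDS abundance) in this document: HeLa Kyoto cells arrested at G1/S by double thymidine block, proteins quantified by TMT10plex mass spectrometry in mild NP-40 versus SDS extracts, three biological replicates.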
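For thermal stability score vs G1/S (z-score of summed log2 fold changes over temperatures) in this document: synchronized HeLa Kyoto cells, proteins quantified by TMT10plex mass spectrometry, three biological replicates, mitosis taken 0.5 h after nocodazole release, G1/S directly after double thymidine block.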

Sequence of SDHA (chain, as listed by the source): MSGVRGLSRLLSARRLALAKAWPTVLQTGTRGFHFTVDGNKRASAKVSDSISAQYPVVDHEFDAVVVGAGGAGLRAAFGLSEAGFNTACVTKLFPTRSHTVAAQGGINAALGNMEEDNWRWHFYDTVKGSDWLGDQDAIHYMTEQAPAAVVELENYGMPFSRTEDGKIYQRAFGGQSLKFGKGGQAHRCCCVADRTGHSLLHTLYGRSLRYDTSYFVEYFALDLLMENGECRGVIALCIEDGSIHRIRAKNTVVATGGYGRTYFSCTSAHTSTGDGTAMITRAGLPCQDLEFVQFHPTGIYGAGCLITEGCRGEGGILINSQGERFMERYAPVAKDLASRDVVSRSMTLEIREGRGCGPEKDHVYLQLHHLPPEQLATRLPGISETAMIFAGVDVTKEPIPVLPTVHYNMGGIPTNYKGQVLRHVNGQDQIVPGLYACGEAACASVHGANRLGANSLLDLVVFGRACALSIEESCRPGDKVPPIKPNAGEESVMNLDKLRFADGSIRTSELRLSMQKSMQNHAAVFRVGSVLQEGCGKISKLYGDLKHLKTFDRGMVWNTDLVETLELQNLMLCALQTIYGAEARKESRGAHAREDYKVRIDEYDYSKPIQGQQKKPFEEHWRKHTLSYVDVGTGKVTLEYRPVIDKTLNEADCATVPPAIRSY

In the case of “MENTENSVDSKSIKNLEPKIIHGSESMDSGISLDNSYKMDYPEMGLCIIINNKNFHKSTGMTSRSGTDVDAANLRETFRNLKYEVRNKNDLTREEIVELMRDVSKEDHSKRSSFVCVLLSHGEEGIIFGTNGPVDLKKITNFFRGDRCRSLTGKPKLFIIQACRGTELDCGIETDSGVDDDMACHKIPVEADFLYAYSTAPGYYSWRNSKDGSWFIQSLCAMLKQYADKLEFMHILTRVNRKVATEFESFSFDATFHAKKQIPCIVSMLTKELYFYH [CASP3]”, the “solubility in G1/S (log2)” value in the series on HeLa Kyoto [1] was 0.135. In addition, the values for the melting temperature in the series on HeLa Kyoto [2] (cell cycle stage: G1/S) and in the series with HeLa Kyoto [2] (cell cycle stage: mitosis) were 55.7 °C and 56.3 °C, respectively. For the same substance, the “solubility change mitosis (log2)” value with HeLa Kyoto [3] worked out at 0.0123. The thermal stability score is 0.22 in the series on HeLa Kyoto [4] (setting [5]) and -0.0196 with HeLa Kyoto [4] (cell cycle stage: mitosis).

With “MAAWKSWTALRLCATVVVLDMVVCKGFVEDLDESFKENRNDDIWLVDFYAPWCGHCKKLEPIWNEVGLEMKSIGSPVKVGKMDATSYSSIASEFGVRGYPTIKLLKGDLAYNYRGPRTKDDIIEFAHRVSGALIRPLPSQQMFEHMQKRHRVFFVYVGGESPLKEKYIDAASELIVYTYFFSASEEVVPEYVTLKEMPAVLVFKDETYFVYDEYEDGDLSSWINRERFQNYLAMDGFLLYELGDTGKLVALAVIDEKNTSVEHTRLKSIIQEVARDYRDLFHRDFQFGHMDGNDYINTLLMDELTVPTVVVLNTSNQQYFLLDRQIKNVEDMVQFINNILDGTVEAQGGDSILQRLKRIVFDAKSTIVSIFKSSPLMGCFLFGLPLGVISIMCYGIYTADTDGGYIEERYEVSKSENENQEQIEESKEQQEPSSGGSVVPTVQEPKDVLEKKKD [TMX3]”, in the series with HeLa Kyoto [1], the “solubility in G1/S (log2)” value turned out to be 0.2. The figures for the melting temperature with HeLa Kyoto [2] (cell cycle stage: G1/S) and in the series with HeLa Kyoto [2] (cell cycle stage: mitosis) were 54.5 °C and 54.3 °C, respectively. For the same substance, the “solubility change mitosis (log2)” value in the series on HeLa Kyoto [3] is -0.0543. Also, the thermal stability score in the series with HeLa Kyoto [4] (setting [5]) was 0.827; in the series with HeLa Kyoto [4] (cell cycle stage: mitosis), 3.44.

As to SDHA, the “solubility in G1/S (log2)” value with HeLa Kyoto [1] is -0.11. Further, the values for the melting temperature in the series on HeLa Kyoto [2] (cell cycle stage: G1/S) and in the series with HeLa Kyoto [2] (cell cycle stage: mitosis) were 54.7 °C and 56.4 °C, respectively. Moreover, in the series on HeLa Kyoto [3], the “solubility change mitosis (log2)” value was -0.0448. The figures for the thermal stability score with HeLa Kyoto [4] (setting [5]) and in the series on HeLa Kyoto [4] (cell cycle stage: mitosis) were 1.89 and 2.23, respectively.

With “MKKQFNRMKQLANQTVGRAEKTEVLSEDLLQIERRLDTVRSICHHSHKRLVACFQGQHGTDAERRHKKLPLTALAQNMQEASTQLEDSLLGKMLETCGDAENQLALELSQHEVFVEKEIVDPLYGIAEVEIPNIQKQRKQLARLVLDWDSVRARWNQAHKSSGTNFQGLPSKIDTLKEEMDEAGNKVEQCKDQLAADMYNFMAKEGEYGKFFVTLLEAQADYHRKALAVLEKTLPEMRAHQDKWAEKPAFGTPLEEHLKRSGREIALPIEACVMLLLETGMKEEGLFRIGAGASKLKKLKAALDCSTSHLDEFYSDPHAVAGALKSYLRELPEPLMTFNLYEEWTQVASVQDQDKKLQDLWRTCQKLPPQNFVNFRYLIKFLAKLAQTSDVNKMTPSNIAIVLGPNLLWARNEGTLAEMAAATSVHVVAVIEPIIQHADWFFPEEVEFNVSEAFVPLTTPSSNHSFHTGNDSDSGTLERKRPASMAVMEGDLVKKESFGVKLMDFQAHRRGGTLNRKHISPAFQPPLPPTDGSTVVPAGPEPPPQSSRAESSSGGGTVPSSAGILEQGPSPGDGSPPKPKDPVSAAVPAPGRNNSQIASGQNQPQAAAGSHQLSMGQPHNAAGPSPHTLRRAVKKPAPAPPKPGNPPPGHPGGQSSSGTSQHPPSLSPKPPTRSPSPPTQHTGQPPGQPSAPSQLSAPRRYSSSLSPIQAPNHPPPQPPTQATPLMHTKPNSQGPPNPMALPSEHGLEQPSHTPPQTPTPPSTPPLGKQNPSLPAPQTLAGGNPETAQPHAGTLPRPRPVPKPRNRPSVPPPPQPPGVHSAGDSSLTNTAPTASKIVTDSNSRVSEPHRSIFPEMHSDSASKDVPGRILLDIDNDTESTAL [ARHGAP17]”, in the series with HeLa Kyoto [1], the “solubility in G1/S (log2)” value is 0.413. In addition, the melting temperature in the series with HeLa Kyoto [2] (cell cycle stage: G1/S) turned out to be 48.2 °C; with HeLa Kyoto [2] (cell cycle stage: mitosis) it was 49.1 °C. For the same substance, the “solubility change mitosis (log2)” value in the series with HeLa Kyoto [3] was -0.0286. In addition, the figures for the thermal stability score in the series with HeLa Kyoto [4] (setting [5]) and with HeLa Kyoto [4] (cell cycle stage: mitosis) were 0.76 and 2.7, respectively.

As to “MESGFTSKDTYLSHFNPRDYLEKYYKFGSRHSAESQILKHLLKNLFKIFCLDGVKGDLLIDIGSGPTIYQLLSACESFKEIVVTDYSDQNLQELEKWLKKEPEAFDWSPVVTYVCDLEGNRVKGPEKEEKLRQAVKQVLKCDVTQSQPLGAVPLPPADCVLSTLCLDAACPDLPTYCRALRNLGSLLKPGGFLVIMDALKSSYYMIGEQKFSSLPLGREAVEAAVKEAGYTIEWFEVISQSYSSTMANNEGLFSLVARKLSRPL [NNMT]”, the “solubility in G1/S (log2)” value with HeLa Kyoto [1] worked out at 0.584. Further, the melting temperature with HeLa Kyoto [2] (cell cycle stage: G1/S) came out at 53.4 °C; in the series on HeLa Kyoto [2] (cell cycle stage: mitosis), 53.7 °C. In addition, the “solubility change mitosis (log2)” value in the series with HeLa Kyoto [3] was -0.0166. Further, the thermal stability score came to 3.88 in the series with HeLa Kyoto [4] (setting [5]) and 4.37 in the series on HeLa Kyoto [4] (cell cycle stage: mitosis).

Consider “MKKDVRILLVGEPRVGKTSLIMSLVSEEFPEEVPPRAEEITIPADVTPERVPTHIVDYSEAEQSDEQLHQEISQANVICIVYAVNNKHSIDKVTSRWIPLINERTDKDSRLPLILVGNKSDLVEYSSMETILPIMNQYTEIETCVECSAKNLKNISELFYYAQKAVLHPTGPLYCPEEKEMKPACIKALTRIFKISDQDNDGTLNDAELNFFQRICFNTPLAPQALEDVKNVVRKHISDGVADSGLTLKGFLFLHTLFIQRGRHETTWTVLRRFGYDDDLDLTPEYLFPLLKIPPDCTTELNHHAYLFLQSTFDKHDLDRDCALSPDELKDLFKVFPYIPWGPDVNNTVCTNERGWITYQGFLSQWTLTTYLDVQRCLEYLGYLGYSILTEQESQASAVTVTRDKKIDLQKKQTQRNVFRCNVIGVKNCGKSGVLQALLGRNLMRQKKIREDHKSYYAINTVYVYGQEKYLLLHDISESEFLTEAEIICDVVCLVYDVSNPKSFEYCARIFKQHFMDSRIPCLIVAAKSDLHEVKQEYSISPTDFCRKHKMPPPQAFTCNTADAPSKDIFVKLTTMAMYPHVTQADLKSSTFWLRASFGATVFAVLGFAMYKALLKQR [RHOT1]”, for which the “solubility in G1/S (log2)” value in the series on HeLa Kyoto [1] was -0.379. For the same substance, the melting temperature with HeLa Kyoto [2] (cell cycle stage: G1/S) turned out to be 52.8 °C; in the series with HeLa Kyoto [2] (cell cycle stage: mitosis), 52.5 °C. For the same substance, in the series on HeLa Kyoto [3], the “solubility change mitosis (log2)” value was -0.0628. Also, the thermal stability score in the series on HeLa Kyoto [4] (setting [5]) was -0.722; with HeLa Kyoto [4] (cell cycle stage: mitosis) it was -1.26.
